Test results as given in patent publication US20160303258A1.
Where no end group is shown, it is not given here. The star is where a group is joined. DOTA = O=C(O)CN1CCN(CC(=O)O)CCN(CC(=O)*)CCN(CC(=O)O)CC1; Ahx = NCCCCCC(=O)O

B1: MLN6907 DSP (drug substance precursor), Formula (VI): DOTA-Ahx-STp(5-18), not radiolabeled (peptide)
peptide: CCELCCNPACAGCY
modifications: not checked
B2: [68Ga]MLN6907 DP (drug product), Formula (VIa) (peptide)
peptide: {DOTA-Ahx}-CCELCCNPACAGCY
modifications: ends and bridges not checked; also: 68Ga complexed by DOTA, cyclised (places not given here)

Experiments:
[1] = molecular target: guanylyl cyclase C (GCC) (human), P25092; assay: in vitro competitive binding assay with HEK-293 GCC clone 2 cells (Indium-111 used as surrogate label; FIG. 13)
[2] = molecular target: guanylyl cyclase C (GCC) (human), P25092; assay: competitive binding against [111In]MLN6907 on HEK-293 GCC Clone 2 cells; DSP treated with chelation reaction conditions (acetone:HCl, about 100 C, 10 min)
[3] = molecular target: guanylyl cyclase C (GCC) (human), P25092; assay: in vivo competitive binding against [68Ga]MLN6907 DP in tumor models with different GCC expression levels; semi-mechanistic model
[4] = molecular target: guanylyl cyclase C (GCC) (human), P25092; assay: competitive binding against [111In]MLN6907 on HEK-293 GCC Clone 2 cells; DSP without chelation reaction conditions
[5] = molecular target: guanylyl cyclase C (GCC) (human), P25092; assay: in vivo competitive binding study with [68Ga]MLN6907 in HEK-293 GCC Clone 2 tumor-bearing mice, model-derived

Sequence of guanylyl cyclase C (GCC) (human), P25092 (P25092 24-1073 limits assumed): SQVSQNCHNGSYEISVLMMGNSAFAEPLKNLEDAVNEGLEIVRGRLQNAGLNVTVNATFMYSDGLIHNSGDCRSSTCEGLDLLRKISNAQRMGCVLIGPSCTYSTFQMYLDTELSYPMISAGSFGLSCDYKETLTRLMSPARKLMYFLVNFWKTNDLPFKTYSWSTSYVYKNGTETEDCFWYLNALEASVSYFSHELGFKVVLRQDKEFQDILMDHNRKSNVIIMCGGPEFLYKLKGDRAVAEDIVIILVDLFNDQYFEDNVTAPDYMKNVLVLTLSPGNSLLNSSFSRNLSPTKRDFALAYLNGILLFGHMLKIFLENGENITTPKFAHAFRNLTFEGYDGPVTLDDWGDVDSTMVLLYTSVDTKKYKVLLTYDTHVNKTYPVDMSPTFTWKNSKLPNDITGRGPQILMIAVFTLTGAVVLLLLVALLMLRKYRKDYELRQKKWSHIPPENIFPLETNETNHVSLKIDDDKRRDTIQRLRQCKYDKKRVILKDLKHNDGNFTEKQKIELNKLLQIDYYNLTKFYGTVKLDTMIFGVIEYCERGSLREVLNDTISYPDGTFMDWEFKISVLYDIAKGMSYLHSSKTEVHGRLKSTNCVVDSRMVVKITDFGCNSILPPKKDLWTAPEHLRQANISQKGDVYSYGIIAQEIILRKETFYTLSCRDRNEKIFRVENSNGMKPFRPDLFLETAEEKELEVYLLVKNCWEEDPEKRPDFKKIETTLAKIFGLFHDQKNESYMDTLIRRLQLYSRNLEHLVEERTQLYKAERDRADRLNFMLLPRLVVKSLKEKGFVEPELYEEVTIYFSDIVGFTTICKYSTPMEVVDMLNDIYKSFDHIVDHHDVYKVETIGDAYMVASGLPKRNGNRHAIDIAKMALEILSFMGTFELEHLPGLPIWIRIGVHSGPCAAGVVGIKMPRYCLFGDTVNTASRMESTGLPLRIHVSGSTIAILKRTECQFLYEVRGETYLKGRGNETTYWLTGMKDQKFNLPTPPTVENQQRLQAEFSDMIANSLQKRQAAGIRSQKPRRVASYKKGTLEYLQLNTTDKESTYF

Row | Binder | Kd [1] | IC50 [2] | EC50 [3] | IC50 [4] | Bmax (antigen surface density, HEK-293 GCC Clone 2) [5]
1 | B1 | 3.2 nM | 4.75 nM | 97.1 to 5660 nM | 4.59 nM | –
2 | B2 | – | – | – | – | 14000
